Test results published in patent publication US20170327598A1 (published 2017).
Like-named read-outs stand apart in the source and are kept apart here.

Experiments:
Assay in all cases: sandwich ELISA, STAT protein coated at 0.5 µg/mL
STAT 1 protein [1] = target: T1, STAT 1 protein (UniProt P42224 1-750, limits assumed)
T1 sequence (looked up): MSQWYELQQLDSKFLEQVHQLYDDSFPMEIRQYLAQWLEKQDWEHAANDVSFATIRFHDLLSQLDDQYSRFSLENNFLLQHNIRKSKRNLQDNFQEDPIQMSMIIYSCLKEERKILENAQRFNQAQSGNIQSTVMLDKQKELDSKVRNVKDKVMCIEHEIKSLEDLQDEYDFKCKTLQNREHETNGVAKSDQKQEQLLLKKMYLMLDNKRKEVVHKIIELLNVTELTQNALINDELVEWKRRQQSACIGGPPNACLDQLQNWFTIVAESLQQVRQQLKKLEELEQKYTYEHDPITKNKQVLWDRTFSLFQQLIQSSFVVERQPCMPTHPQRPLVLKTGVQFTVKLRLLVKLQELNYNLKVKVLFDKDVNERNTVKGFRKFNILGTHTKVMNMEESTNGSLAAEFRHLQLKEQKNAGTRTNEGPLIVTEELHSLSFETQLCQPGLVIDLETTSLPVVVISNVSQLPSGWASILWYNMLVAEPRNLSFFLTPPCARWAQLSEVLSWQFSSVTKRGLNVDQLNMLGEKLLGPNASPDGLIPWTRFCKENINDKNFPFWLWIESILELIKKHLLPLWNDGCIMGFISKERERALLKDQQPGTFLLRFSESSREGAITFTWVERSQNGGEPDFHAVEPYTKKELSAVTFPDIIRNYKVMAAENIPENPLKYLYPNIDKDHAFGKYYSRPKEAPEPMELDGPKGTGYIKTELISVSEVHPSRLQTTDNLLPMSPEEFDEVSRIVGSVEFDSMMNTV

STAT 2 protein [2] = target: T2, STAT 2 protein (UniProt P52630 1-851, limits assumed)
STAT 3 protein [3] = target: T3, STAT 3 protein (UniProt P40763 1-770, limits assumed)
STAT 4 protein = target: T4, STAT 4 protein (UniProt Q14765 1-748, limits assumed)
T4 sequence (looked up): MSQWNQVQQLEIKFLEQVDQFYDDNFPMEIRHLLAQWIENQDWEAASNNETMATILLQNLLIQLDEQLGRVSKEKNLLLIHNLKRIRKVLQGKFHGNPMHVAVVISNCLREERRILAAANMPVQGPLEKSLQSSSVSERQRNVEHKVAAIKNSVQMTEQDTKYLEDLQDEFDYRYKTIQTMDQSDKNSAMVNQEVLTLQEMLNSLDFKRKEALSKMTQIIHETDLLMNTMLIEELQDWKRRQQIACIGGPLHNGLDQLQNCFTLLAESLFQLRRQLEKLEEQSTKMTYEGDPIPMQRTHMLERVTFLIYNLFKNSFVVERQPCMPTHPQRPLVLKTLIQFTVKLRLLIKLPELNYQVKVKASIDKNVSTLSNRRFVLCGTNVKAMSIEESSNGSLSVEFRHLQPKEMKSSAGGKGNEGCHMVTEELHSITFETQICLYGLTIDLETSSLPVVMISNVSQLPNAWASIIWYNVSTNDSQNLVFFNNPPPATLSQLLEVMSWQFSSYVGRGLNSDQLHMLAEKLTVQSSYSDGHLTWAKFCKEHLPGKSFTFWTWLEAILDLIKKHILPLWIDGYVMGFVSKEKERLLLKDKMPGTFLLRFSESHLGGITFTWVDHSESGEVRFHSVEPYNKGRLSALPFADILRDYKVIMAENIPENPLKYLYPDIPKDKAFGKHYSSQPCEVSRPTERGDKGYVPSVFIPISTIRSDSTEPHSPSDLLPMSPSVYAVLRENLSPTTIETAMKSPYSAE

STAT 5a protein = target: T5, STAT 5a protein (UniProt P42229 1-794, limits assumed)
T5 sequence (looked up): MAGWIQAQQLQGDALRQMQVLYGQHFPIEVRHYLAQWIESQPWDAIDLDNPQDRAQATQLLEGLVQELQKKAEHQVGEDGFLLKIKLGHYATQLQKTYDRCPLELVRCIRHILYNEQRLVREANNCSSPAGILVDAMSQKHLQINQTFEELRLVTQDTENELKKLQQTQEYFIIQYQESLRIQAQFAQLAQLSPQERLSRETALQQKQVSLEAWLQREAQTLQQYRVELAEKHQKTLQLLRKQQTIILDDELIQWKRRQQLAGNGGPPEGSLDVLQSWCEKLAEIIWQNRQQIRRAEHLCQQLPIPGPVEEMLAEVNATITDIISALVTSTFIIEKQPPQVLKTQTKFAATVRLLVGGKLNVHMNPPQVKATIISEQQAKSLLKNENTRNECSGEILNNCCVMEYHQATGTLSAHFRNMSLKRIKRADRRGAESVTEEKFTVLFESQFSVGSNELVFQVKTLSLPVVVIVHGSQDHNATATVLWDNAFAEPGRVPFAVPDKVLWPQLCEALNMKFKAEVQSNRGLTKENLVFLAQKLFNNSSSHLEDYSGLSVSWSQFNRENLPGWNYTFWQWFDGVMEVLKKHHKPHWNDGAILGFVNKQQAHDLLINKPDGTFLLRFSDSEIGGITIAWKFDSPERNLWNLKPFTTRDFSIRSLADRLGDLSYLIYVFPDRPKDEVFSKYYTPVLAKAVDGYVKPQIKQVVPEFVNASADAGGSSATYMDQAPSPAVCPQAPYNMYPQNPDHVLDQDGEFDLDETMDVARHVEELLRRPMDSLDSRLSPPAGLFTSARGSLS

STAT 1 protein [4] = target: T1, STAT 1 protein; remark: listed apart in the source
STAT 2 protein [5] = target: T2, STAT 2 protein; remark: listed apart in the source
STAT 3 protein [6] = target: T3, STAT 3 protein; remark: listed apart in the source
STAT 2 protein [7] = target: T2, STAT 2 protein; remark: listed apart in the source

T2 sequence (P52630 whole entry): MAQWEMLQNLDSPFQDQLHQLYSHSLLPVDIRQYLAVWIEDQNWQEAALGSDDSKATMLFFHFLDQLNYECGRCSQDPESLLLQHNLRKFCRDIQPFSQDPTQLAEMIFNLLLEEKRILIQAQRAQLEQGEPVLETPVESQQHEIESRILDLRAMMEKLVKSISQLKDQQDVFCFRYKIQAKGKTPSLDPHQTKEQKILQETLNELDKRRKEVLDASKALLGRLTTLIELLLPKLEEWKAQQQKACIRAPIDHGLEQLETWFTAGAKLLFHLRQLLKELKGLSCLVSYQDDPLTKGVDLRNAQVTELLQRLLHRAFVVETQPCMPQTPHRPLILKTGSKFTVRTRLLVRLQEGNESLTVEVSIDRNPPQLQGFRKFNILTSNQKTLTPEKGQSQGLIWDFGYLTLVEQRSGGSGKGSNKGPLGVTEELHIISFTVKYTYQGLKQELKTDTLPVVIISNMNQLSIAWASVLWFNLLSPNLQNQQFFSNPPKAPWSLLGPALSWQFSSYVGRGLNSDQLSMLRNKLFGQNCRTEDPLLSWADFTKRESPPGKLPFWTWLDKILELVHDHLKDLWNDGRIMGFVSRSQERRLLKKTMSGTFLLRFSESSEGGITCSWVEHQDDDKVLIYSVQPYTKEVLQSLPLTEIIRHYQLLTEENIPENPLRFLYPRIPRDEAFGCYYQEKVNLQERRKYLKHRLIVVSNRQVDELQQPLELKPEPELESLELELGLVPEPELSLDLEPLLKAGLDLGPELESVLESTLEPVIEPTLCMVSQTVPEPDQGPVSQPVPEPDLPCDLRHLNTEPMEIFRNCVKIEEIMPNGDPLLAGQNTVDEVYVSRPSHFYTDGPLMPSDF

- Mean OD450 (STAT 1 protein [1]): 1.94 OD450
- Mean OD450 (STAT 2 protein [2]): 1.85 OD450
- Mean OD450 (STAT 3 protein [3]): 2.76 OD450
- Mean OD450 (STAT 4 protein): 3.14 OD450
- Mean OD450 (STAT 5a protein): 2.73 OD450
- Mean OD450 (STAT 1 protein [4]): 3.16 OD450
- Mean OD450 (STAT 2 protein [5]): 3.34 OD450
- Mean OD450 (STAT 3 protein [6]): 3.67 OD450
- Mean OD450 (STAT 2 protein [7]): 0.023 OD450
B1: anti-STAT3 VHH13 (SEQ ID NO:3) sdAb (VHH)
VHH: HVQLVESGGGSVQAGGSLRLSCAASGANGGRSCMGWFRQVPGKEREGVSGISTGGLITYYADSVKGRFTISQDNTKNTLYLQMNSLKPEDTAMYYCATSRFDCYRGSWFNRYMYNSWGQGTQVTVSS
